Like-named read-outs stand apart in the source and are kept apart here.
How the values were obtained:
[1] = molecular target: T1, RAGE extracellular domain V-C1-C2 (His) (human, UniProt Q15109 23-342); assay: AlphaScreen
RAGE V domain (His) = RAGE V domain (His) (human, UniProt Q15109 23-121); assay: AlphaScreen
[2] = molecular target: T2, RAGE V-C1 (crystallography) (human, UniProt Q15109 23-237); assay: X-ray crystallography
[3] = molecular target: T2, RAGE V-C1 (crystallography); assay: X-ray crystallography; remark: listed apart in the source
crystal structure = molecular target: the molecule itself; assay: crystal structure
RAGE mutant 0 = RAGE mutant 0 (UniProt Q15109 23-237, K110A;R178A;R179A); assay: fluorescence polarization
[4] = molecular target: T1, RAGE extracellular domain V-C1-C2 (His); assay: AlphaScreen; remark: listed apart in the source

B1: ODN 2006 (CpG-B) (ssDNA)
DNA: TCGTCGTTTTGTCGTTTTGTCGTT
modifications: backbone of assayed form not in material; probably phosphorothioate
Does B1 bind [1]?
Result: binds

Does B1 bind (RAGE V domain (His))?
Result: binds

B2: ODN 981/982 CpG 22mer (dsDNA)
DNA 1: CTGCAACGATGCTACGAACGTG
DNA 2: CACGTTCGTAGCATCGTTGCAG
Does B2 bind [2]?
Result: binds

B3: ODN 752/753 vaccinia repeat 22mer (dsDNA)
DNA 1: CCATGACTGTAGGAAACTCTAG
DNA 2: GCTAGAGTTTCCTACAGTCATG
Does B3 bind [3]?
Result: binds

B4: Human RAGE V-C1 domain (residues 23-237) (domain or fragment)
chain: AQNITARIGEPLVLKCKGAPKKPPQRLEWKLNTGRTEAWKVLSPQGGGPWDSVARVLPNGSLFLPAVGIQDEGIFRCQAMNRNGKETKSNYRVRVYQIPGKPEIVDSASELTAGVPNKVGTCVSEGSYPAGTLSWHLDGKPLVPNEKGVSVKEQTRRHPETGLFTLQSELMVTPARGGDPRPTFSCSFSPGLPRHRALRTAPIQPRVWEPVPLEE
Does B4 bind (crystal structure)?
Result: binds

B5: ODN 787/788 20mer (dsDNA)
DNA 1: CCATCAAAGAGAGAAAGAGC
DNA 2: GCTCTTTCTCTCTTTGATGG
Does B5 bind (RAGE mutant 0)?
Result: binds

B6: ODN 2336 (CpG-A) (ssDNA)
DNA: GGGGACGACGTCGTGGGGGGG
modifications: phosphorothioate at positions marked * (G*G*GGACGACGTCGTGG*G*G*G*G*G)
Does B6 bind [4]?
Result: binds
